Changes are numbered by the printed parent chain. Numbers in names are those of the source.
T1: MBP–FD(T282E), maltose-binding protein-fused phospho-mimic mutant FD (Arabidopsis thaliana, UniProt Q84JK2 2-285, T282E)
T1 construct: FD, bZIP transcription factor, Arabidopsis thaliana; residues 2-285; codon-optimised for E. coli; also called MBP-FD^(2–285 (T282E)); source: E. coli, purified (Ni-NTA, size-exclusion chromatography); not shown: MBP, N-terminal, kept
T1 sequence (looked up): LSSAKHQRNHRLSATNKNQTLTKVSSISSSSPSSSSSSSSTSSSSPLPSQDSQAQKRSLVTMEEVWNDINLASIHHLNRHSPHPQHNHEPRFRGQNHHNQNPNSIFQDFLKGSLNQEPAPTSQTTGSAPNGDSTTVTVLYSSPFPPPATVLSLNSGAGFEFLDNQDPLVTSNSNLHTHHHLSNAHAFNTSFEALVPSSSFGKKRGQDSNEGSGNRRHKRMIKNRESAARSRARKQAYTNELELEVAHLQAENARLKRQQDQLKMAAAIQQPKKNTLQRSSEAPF

B1: MBP–FDc(T282E), N-terminal MBP-fused, truncated FD (amino acids 215–285) (domain or fragment, Arabidopsis thaliana, UniProt Q84JK2 215-285, looked up)
chain: NRRHKRMIKNRESAARSRARKQAYTNELELEVAHLQAENARLKRQQDQLKMAAAIQQPKKNTLQRSSEAPF
notes: FD, Arabidopsis thaliana; also called MBP-FDc^(215–285 (T282E)); source: E. coli, purified; not shown: MBP, N-terminal, kept
B2: MBP–FDc(T282E) Mu6 (L263A) (domain or fragment, Arabidopsis thaliana, UniProt Q84JK2 215-285, looked up)
chain: B1 chain with L49A
notes: FD, Arabidopsis thaliana; amino acids 215–285; source: E. coli, purified; not shown: MBP, N-terminal, kept
B3: MBP–FDc(T282E) Mu3 (L242A) (domain or fragment, Arabidopsis thaliana, UniProt Q84JK2 215-285, looked up)
chain: B1 chain with L28A
notes: FD, Arabidopsis thaliana; amino acids 215–285; L242A is printed for Mu3 only in the name of the transgene gFD::3HA-3Flag-FD^Mu3_L242A; source: E. coli, purified; not shown: MBP, N-terminal, kept
B4: MBP–FDc(T282E) Mu2 (Y238A,E243A) (domain or fragment, Arabidopsis thaliana, UniProt Q84JK2 215-285, looked up)
chain: B1 chain with Y24A, E29A
notes: as for B2
B5: GRF7 (14-3-3ν), recombinant (natural protein, Arabidopsis thaliana, UniProt Q96300 1-265, looked up)
chain: MSSSREENVYLAKLAEQAERYEEMVEFMEKVAKTVDTDELTVEERNLLSVAYKNVIGARRASWRIISSIEQKEESRGNDDHVSIIKDYRGKIETELSKICDGILNLLDSHLVPTASLAESKVFYLKMKGDYHRYLAEFKTGAERKEAAESTLVAYKSAQDIALADLAPTHPIRLGLALNFSVFYYEILNSPDRACSLAKQAFDEAISELDTLGEESYKDSTLIMQLLRDNLTLWNSDINDEAGGDEIKEASKHEPEEGKPAETGQ
notes: GRF7 (14-3-3ν), Arabidopsis thaliana; cloned into pMAL-c5X-His or a modified pMAL-c5X vector; also called GRF7-6His; source: E. coli, purified (Ni-NTA, size-exclusion chromatography)

How the values were obtained:
[1] = target: B5; assay: SEC-MALS; MBP–FDc(T282E) or its mutants with GRF7; 25 mM Tris-HCl pH 8.0, 160 mM NaCl, 2% glycerol; Superdex 200; conditions: both partners purified
[2] = target: the molecule itself; assay: SEC-MALS; MBP–FDc(T282E) alone at low concentration; 25 mM Tris-HCl pH 8.0, 160 mM NaCl, 2% glycerol; Superdex 200
[3] = target: the molecule itself; assay: SEC-MALS; MBP–FDc(T282E) or its mutants with GRF7; 25 mM Tris-HCl pH 8.0, 160 mM NaCl, 2% glycerol; Superdex 200
[4] = target: T1, MBP–FD(T282E), maltose-binding …; assay: SEC; gel filtration of mixed purified proteins without DNA, fractions analysed on gel; conditions: both partners purified

B1
binding result [1]: binds
stoichiometry N [2]: 2

B2
binding result [1]: binds
binding result [3]: binds

B3
stoichiometry N [1]: 1 copy of FDc(T282E) per GRF7 dimer

B4
binding result [1]: binds
binding result [3]: binds

B5
binding result [4]: binds

Reference: article PMC12711580, “Florigen activation complex forms via multifaceted assembly in Arabidopsis” (Nature, 2025)
